Data on four molecules can be found in PMC10173277.

Where two headings read alike, the source gives them in different places.

The target in experiment [1] is collagen type I, bovine tendon, as absorbable collagen sponge (ACS) (bovine) (UniProt P02453). The experiment can be described thus: absorption and release from a collagen sponge, protein in the supernatant by micro-BCA; ACS (150 μL) treated with the fragment in PBS for 1 h at room temperature (75 μg; for ColG-FNIII12-14 also 37.5 and 15 μg); release into 150 μL PBS at 37 °C, supernatant taken and PBS refreshed at 36, 60, 120 h.
Chain of UniProt P02453 (P02453 162-1217, chain 1 of 2): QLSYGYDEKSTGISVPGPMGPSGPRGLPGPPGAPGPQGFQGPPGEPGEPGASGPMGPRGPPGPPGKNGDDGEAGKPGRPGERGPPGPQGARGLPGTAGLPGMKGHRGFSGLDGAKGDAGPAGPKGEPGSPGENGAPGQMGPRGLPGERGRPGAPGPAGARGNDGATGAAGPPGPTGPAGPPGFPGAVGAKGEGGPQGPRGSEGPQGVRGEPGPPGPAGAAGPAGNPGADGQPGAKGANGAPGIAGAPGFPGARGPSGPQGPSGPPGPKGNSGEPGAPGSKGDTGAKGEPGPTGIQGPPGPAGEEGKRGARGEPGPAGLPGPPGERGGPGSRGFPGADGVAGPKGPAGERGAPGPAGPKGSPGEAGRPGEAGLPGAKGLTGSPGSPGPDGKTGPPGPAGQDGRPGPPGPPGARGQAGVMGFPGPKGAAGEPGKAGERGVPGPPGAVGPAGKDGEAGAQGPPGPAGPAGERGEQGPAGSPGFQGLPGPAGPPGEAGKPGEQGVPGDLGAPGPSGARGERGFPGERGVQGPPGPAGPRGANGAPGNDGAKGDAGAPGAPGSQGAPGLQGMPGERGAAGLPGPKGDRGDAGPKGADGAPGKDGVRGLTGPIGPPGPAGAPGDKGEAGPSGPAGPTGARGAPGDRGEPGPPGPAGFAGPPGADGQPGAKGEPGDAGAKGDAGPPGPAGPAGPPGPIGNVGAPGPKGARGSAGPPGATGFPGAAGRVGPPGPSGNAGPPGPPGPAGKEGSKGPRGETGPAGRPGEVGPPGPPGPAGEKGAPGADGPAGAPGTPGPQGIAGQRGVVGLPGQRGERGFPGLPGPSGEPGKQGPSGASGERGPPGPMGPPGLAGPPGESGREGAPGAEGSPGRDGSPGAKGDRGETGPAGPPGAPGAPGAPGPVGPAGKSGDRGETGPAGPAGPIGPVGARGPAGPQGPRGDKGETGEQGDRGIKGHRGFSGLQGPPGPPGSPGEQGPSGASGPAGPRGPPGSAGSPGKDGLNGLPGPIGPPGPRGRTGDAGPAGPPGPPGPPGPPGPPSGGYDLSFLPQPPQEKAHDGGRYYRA
Chain of UniProt P02453 (P02465 80-1117, chain 2 of 2, further chain): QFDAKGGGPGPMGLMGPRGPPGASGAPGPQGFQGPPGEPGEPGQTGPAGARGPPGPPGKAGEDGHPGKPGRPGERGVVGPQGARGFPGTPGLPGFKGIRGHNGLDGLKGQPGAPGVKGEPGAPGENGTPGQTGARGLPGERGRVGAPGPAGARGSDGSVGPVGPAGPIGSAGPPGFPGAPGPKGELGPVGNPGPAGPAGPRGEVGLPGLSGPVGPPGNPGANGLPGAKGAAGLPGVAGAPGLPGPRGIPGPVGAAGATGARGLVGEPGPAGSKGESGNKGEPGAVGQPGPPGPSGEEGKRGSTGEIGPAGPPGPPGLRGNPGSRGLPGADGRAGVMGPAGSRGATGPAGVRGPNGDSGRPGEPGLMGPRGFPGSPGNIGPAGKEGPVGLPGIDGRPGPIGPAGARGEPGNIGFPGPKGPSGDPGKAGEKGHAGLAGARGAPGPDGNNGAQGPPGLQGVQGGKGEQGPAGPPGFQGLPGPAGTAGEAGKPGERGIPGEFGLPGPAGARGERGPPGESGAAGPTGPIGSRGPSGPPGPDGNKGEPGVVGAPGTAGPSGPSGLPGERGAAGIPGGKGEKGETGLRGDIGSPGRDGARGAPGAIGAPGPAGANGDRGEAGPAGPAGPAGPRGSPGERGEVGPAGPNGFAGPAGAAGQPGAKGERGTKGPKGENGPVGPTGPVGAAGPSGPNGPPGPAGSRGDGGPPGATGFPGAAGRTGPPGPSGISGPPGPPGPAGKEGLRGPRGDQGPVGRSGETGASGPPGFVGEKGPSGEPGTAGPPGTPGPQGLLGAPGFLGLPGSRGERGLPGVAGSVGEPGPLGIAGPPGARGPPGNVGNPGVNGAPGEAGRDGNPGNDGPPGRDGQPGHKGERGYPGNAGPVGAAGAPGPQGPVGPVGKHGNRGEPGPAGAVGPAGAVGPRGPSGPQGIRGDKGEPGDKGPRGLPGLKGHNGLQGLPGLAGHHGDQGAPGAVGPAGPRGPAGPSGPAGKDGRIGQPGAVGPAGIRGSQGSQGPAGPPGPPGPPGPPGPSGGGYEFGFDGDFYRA

Experiment [2] has the same target.
For experiment [3] the target is unchanged. The source holds these as a separate data set.
Experiment [4] has as its target ColG-FNIII12-14 treated collagen scaffold (Clostridium histolyticum | not stated | bovine) (UniProt P02453). The experiment can be described thus: absorption and release of fluorescent rhBMP-2 from a collagen sponge, fluorescence of the supernatant; Dylight 488 rhBMP-2 (0.1, 0.5, 1, 2 μg/mL) incubated 1 h at 37 °C with ACS with or without ColG-FNIII12-14; release into PBS at 37 °C, supernatant read and PBS refreshed at 36, 60, 120 h.

Take ColG-FNIII12-14 protein fragment: the percent of the absorbed fragment remaining bound after 120 h in experiment [1] stood at 43%.

In turn, ColH-FNIII12-14 protein fragment yielded an amount of fragment remaining on the ACS after 120 h (pmol per 1 mg of collagen) in experiment [2] of 90. The percent of the absorbed fragment remaining bound after 120 h in experiment [3] is 10%.

Turning to PLGF-FNIII12-14 protein fragment, the percent of the absorbed fragment remaining bound after 120 h in experiment [1] is 10%.

B1: recombinant human bone morphogenic protein 2, tagged with Dylight 488 (ligand)
chain: QAKHKQRKRLKSSCKRHPLYVDFSDVGWNDWIVAPPGYHAFYCHGECPFPLADHLNSTNHAIVQTLVNSVNSKIPKACCVPTELSAISMLYLDENEKVVLKNYQDMVVEGCGCR
modifications: Dylight 488 (amino reactive NHS ester dye)
As to B1, in experiment [4], the percent of rhBMP-2 absorbed is 30 to 32% and the percent of the absorbed rhBMP-2 retained after 120 h is 33%.
